Laboratory results taken from paper PMC8211822, “CRISPR-Associated Primase-Polymerases are implicated in prokaryotic CRISPR-Cas adaptation” (Nature Communications, 2021).

Tests used:
[1] = biological target: T1, MpAgo, recombinant purified (Marinitoga piezophila, UniProt H2J4R4 1-639); test: pull-down; bait MpCAPP-MBP (20 µg) pre-bound to amylose resin and washed; one prey protein (20 µg) added in 200 µl; 25 mM HEPES pH 7.5, 100 mM NaCl, 50 mM KCl, 3 mM MgCl2, 5% glycerol, 0.5 mM TCEP, 0.1% IGEPAL CA-630; 4 °C, 45 min; Coomassie-stained SDS-PAGE; settings: both partners purified
T1 construct: Argonaute, Marinitoga piezophila, expressed from pET-6His-MBP-MpAgo (Addgene, number not given); His-MBP tag removed with HRV 3C protease; source: E. coli BL21(DE3)pLysS, purified (CoHis resin, tag removal, heparin, Superdex 200)
T1 sequence (looked up): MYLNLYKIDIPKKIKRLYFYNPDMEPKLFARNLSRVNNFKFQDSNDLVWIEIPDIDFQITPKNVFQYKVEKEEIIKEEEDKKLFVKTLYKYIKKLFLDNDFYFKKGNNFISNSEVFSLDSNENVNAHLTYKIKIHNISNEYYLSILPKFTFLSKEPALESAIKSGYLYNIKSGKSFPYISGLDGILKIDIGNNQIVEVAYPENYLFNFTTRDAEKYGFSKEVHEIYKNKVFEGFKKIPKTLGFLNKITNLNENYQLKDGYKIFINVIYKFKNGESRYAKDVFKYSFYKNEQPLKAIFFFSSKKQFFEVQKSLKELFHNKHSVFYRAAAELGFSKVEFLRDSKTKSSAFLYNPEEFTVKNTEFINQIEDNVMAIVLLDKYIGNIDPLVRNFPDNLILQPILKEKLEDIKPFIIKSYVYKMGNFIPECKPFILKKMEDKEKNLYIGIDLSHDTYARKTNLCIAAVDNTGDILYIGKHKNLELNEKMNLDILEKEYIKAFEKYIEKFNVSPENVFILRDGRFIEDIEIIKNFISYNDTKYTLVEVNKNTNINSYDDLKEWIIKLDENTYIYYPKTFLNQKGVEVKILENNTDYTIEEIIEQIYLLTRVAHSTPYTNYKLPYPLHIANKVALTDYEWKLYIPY

[2] = biological target: the molecule itself; test: SEC; MpCAPP-MBP on Superdex 200 10/300

B1: MpCAPP with C-terminal MBP fusion (MpCAPP-MBP), recombinant (enzyme, Marinitoga piezophila, UniProt H2J4R1 1-546, looked up)
chain: MNFKELAFKAEEDFDFEKAIEYYKKAFNELTINDDSLIRYANLLFDFQKFEEAEPIFEKIVSEINDSEYMSKLAIIYEENNKFEKALKIYKELGIESKVKELSDKIELKAPSQNAIKRFMTLFSGREDVFSIQYEGGYRPIRRPLNFHDIKDHFSGKKTLGIYLLKKNDTVKFAAYDIDIKKHYLNREDKFVYEENSKKVAKRLSRELNLENIIHYFEFTGNRGYHIWIFFDIPVSAYKIKYIMEKILDRIELEEGIDVEIFPKQTSLNGGLGNLIKVPLGVHKKTGKKCLFVDNDFNVIENQIEFLNNIKENKATEIDKLFREIFNENDYDDFNVTYKKRTTSSKNSASKKIKSSIRKTLPKSNKNIFTQMIEGCHILKQINEKIEKEAYITEEEEMIFIKSLANLENSKKFIEMKLSQTINFSKKRIDMIIKQSLGVPITCEEIRKIILNKDISLSLENCTCKFQGNYNSPYAIVENIEEMFLDKIDINDIAKKIVEKNAEKFEIEKEIKNLKRMIAKKMGDSKELRTEIGTIKRFGDDIEIIL
notes: MpCAPP, Marinitoga piezophila, Marpi_0402 / WP_014295918.1; the MBP fusion has a size of ~108 kDa; Codon-optimised gene in Supplementary Note 4; cloning details in Supplementary Data 3; also called MpCAPP WT; CAPP WT (C-terminal MBP); source: E. coli BL21 (DE3), purified (cobalt NTA, amylose resin); not shown: MBP, C-terminal, kept
Does B1 bind [1]?
Result: binds

Does B1 bind [2]?
Result: binds
